Experiment [1] concerns the target T1, human epidermal growth factor receptor antigen (human, UniProt P00533 25-645, limits assumed).
T1 construct: whole entry named; also called EGFR
In words: SPR (Biacore T200), 37 C; KD at 10 uM MTX / KD at 0 uM MTX. The method, then: (§1) All binding kinetics analysis was performed on label-free Biacore surface plasmon biosensors (Biacore T200™ from GE Life Sciences) at 37° C. in 10 mM Hepes pH 7.4, 150 mM NaCl, 0.05% Tween-20 (HBST+), with or without 10 µM MTX. The Biacore data were processed in Biacore T200 Evaluation Software, and the data were double-referenced (Myszka, 1999, J Mol Recognit 12(5):279-284) and fit globally to a simple Langmuir with mass transport model to determine the equilibrium dissociation constant, KD, from the ratio of the kinetic rate constants (KD = koff/kₒₙ). In some cases the binding of antigen was very low (or not detectable) in the presence of 10 µM MTX and as a result kinetic rate constants could not be accurately determined. In these cases, a KD (or KD limit) was estimated based on the binding response at the highest analyte concentration tested or based on the typical limit of detection for a Biacore T200.
(§2) The first 4 rounds of panning used biotinylated EGFR antigen captured on streptavidin or neutravidin coated 96-well plates. […] 1536 clones were randomly chosen from the 4th and 5th round of panning against the EGFR antigen and their binding specificity determined by phage ELISA.
For orientation: In SPR one partner is held on a chip, and binding of the other changes the refractive index at the surface.

The target in experiment [2] is T1, human epidermal growth factor receptor …. The experiment is described as follows: SPR (Biacore T200), 37 C, scFv-Fc, 10 uM MTX. The method, then:
as §1, §2
(§3) “*”: For interactions where kₒₙ and koff are reported, the KD was calculated using koff/kₒₙ.

Experiment [3] shares this target. In words: SPR (Biacore T200), 37 C, scFv-Fc, 0 uM MTX. How it is done: as §1, §2
The target of experiment [4] is T2, human CD33 antigen (human, UniProt P20138 18-259, limits assumed).
T2 construct: whole entry named; also called Siglec-3
T2 sequence (P20138 18-259 limits assumed): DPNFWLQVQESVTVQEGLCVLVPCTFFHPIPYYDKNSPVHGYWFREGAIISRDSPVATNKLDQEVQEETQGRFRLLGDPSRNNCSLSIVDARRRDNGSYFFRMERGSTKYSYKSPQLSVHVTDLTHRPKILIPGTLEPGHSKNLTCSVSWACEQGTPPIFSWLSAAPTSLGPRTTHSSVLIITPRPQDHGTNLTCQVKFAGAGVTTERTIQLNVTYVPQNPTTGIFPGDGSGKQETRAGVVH
The experiment is described as follows: SPR (Biacore T200), 37 C, scFv-Fc, 0 uM MTX. How it is done:
as §1

In experiment [5] the target is T2, human CD33 antigen. In words: SPR (Biacore T200), 37 C; KD at 10 uM MTX / KD at 0 uM MTX. How it is done:
as §1

Experiment [6] concerns the target T2, human CD33 antigen. In words: SPR (Biacore T200), 37 C, scFv-Fc, 10 uM MTX; KD estimated, rate constants not determined. How it is done: as §1, §3

Numbering of substitutions follows the chain as printed.

The source of these data is patent publication US20230192839A1 (published 2023).

Broadly, the Kd is the free concentration of one partner at which half of the binding sites on the other are occupied at equilibrium, for simple one-to-one binding. Broadly, the koff is the first-order rate constant of dissociation. Broadly, the kon is the rate constant with which the complex forms.

B1: P08_E05 scFv-Fc fusion (scFv, V domains shown)
VH: QVQLVESGGGLVQAGGSLRLSCAASRRSSRSWAMHWVRQAPGKGLEWVAVISYDGRLKYYADSVKGRFTISRDNAEYLVYLQMNSLRAEDTAVYYCAADGKGAAWSEVDEPDVWGQGTLVTVSS
VL: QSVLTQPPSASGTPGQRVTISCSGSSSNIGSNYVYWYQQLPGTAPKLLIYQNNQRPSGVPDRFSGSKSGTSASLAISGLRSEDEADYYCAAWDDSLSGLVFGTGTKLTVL
notes: Tested as scFv-Fc fusion
B1: in experiment [1], the “Ratio: KD with MTX / KD without MTX” value is 1.3. In experiment [2], this molecule returned a Kd of 480 nM, a koff of 0.073 s⁻¹ and a kon of 150000 M⁻¹ s⁻¹. In experiment [3], the affinity, expressed as Kd, was 360 nM; the koff was 0.071 s⁻¹; the kon came out at 200000 M⁻¹ s⁻¹.

B2: P01_B06 scFv-Fc fusion (scFv, V domains shown)
VH: QVQLVESGGGLVQAGGSLRLSCAASRRSSRSWAMHWVRQAPGKGLEWVAVISYDGRLKYYADSVKGRFTISRDNAEYLVYLQMNSLRAEDTAVYYCAADTSMFASYDPMDVWGQGTLVTVSS
VL: QSVLTQPPSASGTPGQRVTISCSGSSSNIGRNYVNWYQQLPGTAPKLLIYRDDHRPSGVPDRFSGSKSGTSASLAISGLRSEDEADYYCASWDDTLSGWVFGTGTKLTVL
notes: Tested as scFv-Fc fusion
With B2, the “Ratio: KD with MTX / KD without MTX” value in experiment [1] amounted to 1.1. In experiment [2], this molecule came in with a Kd of 256 nM, a koff of 0.026 s⁻¹ and a kon of 100000 M⁻¹ s⁻¹. In experiment [3], binding was put at a Kd of 230 nM, the koff was 0.024 s⁻¹ and the kon turned out to be 100000 M⁻¹ s⁻¹.

B3: P01_A09 scFv-Fc fusion (scFv, V domains shown)
VH: QVQLVESGGGLVQAGGSLRLSCAASRRSSRSWAMHWVRQAPGKGLEWVAVISYDGRLKYYADSVKGRFTISRDNAEYLVYLQMNSLRAEDTAVYYCAAERPTSDGSTGGMDVWGQGTLVTVSS
VL: DIQMTQSPSSLSASVGDRVTITCRASQSISSYLNWYQQKPGKAPKLLIYGASTLQSGVPSRFSGSGSGTDFTLTISSLQPEDFATYYCQQSYSSGTFGQGTKVEIK
notes: Tested as scFv-Fc fusion
With B3, in experiment [4], the affinity, expressed as Kd, was 154 nM; the koff worked out at 0.017 s⁻¹; the kon was determined as 110000 M⁻¹ s⁻¹. Further, the “Ratio: KD with MTX / KD without MTX” value in experiment [5] was found to be 8.5. Further, the Kd in experiment [6] was 1300 nM.

B4: P02_E11 scFv-Fc fusion (scFv, V domains shown)
VH: QVQLVESGGGLVQAGGSLRLSCAASRRSSRSWAMHWVRQAPGKGLEWVAVISYDGRLKYYADSVKGRFTISRDNAEYLVYLQMNSLRAEDTAVYYCAAEASTDNGLDYWGQGTLVTVSS
VL: B3 VL with S28T, S31R, Y32H, G50S, T53S, Q55A, Y92H, S94A
notes: Tested as scFv-Fc fusion
Consider B4, for which, in experiment [4], the Kd worked out at 66 nM, the koff came out at 0.0038 s⁻¹ and the kon was determined as 58000 M⁻¹ s⁻¹. Also, in experiment [5], the “Ratio: KD with MTX / KD without MTX” value amounted to 221. Besides, the dissociation constant Kd in experiment [6] was 14600 nM.

B5: P02_H01 scFv-Fc fusion (scFv, V domains shown)
VH: B4 VH with E99G, A100S, S101G, T102G, D103G, N104D, Y108V
VL: B3 VL with S28T, G50S, A51S, S56G
notes: Tested as scFv-Fc fusion
In experiment [4], B5 displayed a Kd of 1320 nM, a koff of 0.037 s⁻¹ and a kon of 28000 M⁻¹ s⁻¹. For the same molecule, in experiment [5], the “Ratio: KD with MTX / KD without MTX” value amounted to 3.3. In addition, in experiment [6], the Kd was 4340 nM.

B6: P03_A01 scFv-Fc fusion (scFv, V domains shown)
VH: QVQLVESGGGLVQAGGSLRLSCAASRRSSRSWAMHWVRQAPGKGLEWVAVISYDGRLKYYADSVKGRFTISRDNAEYLVYLQMNSLRAEDTAVYYCAAETGSVGLDYWGQGTLVTVSS
VL: B3 VL with S28G, S31T, S52T, T53S, Q55E, S91G, S94Q
notes: Tested as scFv-Fc fusion
In experiment [4], B6 registered a Kd of 115 nM, a koff of 0.0057 s⁻¹ and a kon of 50000 M⁻¹ s⁻¹. For the same molecule, in experiment [5], the “Ratio: KD with MTX / KD without MTX” value is 37. Further, in experiment [6], the Kd was 4270 nM.
